Numbering of substitutions follows the chain as printed. Names may count otherwise.
T1: PVR conjugated to Histidine tag (PVR-HIS, Sino Cat. no. 10109-H08H) (Homo sapiens (Human), UniProt P15151 21-343)
T1 construct: Bought reagent; also called PVR-HIS tagged
T1 sequence: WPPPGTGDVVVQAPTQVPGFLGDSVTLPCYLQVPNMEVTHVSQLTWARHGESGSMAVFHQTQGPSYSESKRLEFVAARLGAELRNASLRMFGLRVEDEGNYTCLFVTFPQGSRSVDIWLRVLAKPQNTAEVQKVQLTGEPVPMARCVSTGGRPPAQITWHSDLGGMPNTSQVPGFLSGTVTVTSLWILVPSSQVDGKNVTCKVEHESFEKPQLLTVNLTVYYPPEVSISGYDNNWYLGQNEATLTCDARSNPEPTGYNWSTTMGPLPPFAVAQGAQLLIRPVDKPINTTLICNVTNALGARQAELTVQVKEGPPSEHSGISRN

T2: human PVR (SPR of the humanized variants, Example 5) (human, UniProt P15151 21-343)
T2 sequence: T1 sequence

T3: chlorocebus (African green monkey) PVR expressed on Vero cells (chlorocebus (African green monkey), UniProt P32506 21-417)
T3 construct: whole, on cells; also called chlorocebus PVR
T3 sequence (looked up): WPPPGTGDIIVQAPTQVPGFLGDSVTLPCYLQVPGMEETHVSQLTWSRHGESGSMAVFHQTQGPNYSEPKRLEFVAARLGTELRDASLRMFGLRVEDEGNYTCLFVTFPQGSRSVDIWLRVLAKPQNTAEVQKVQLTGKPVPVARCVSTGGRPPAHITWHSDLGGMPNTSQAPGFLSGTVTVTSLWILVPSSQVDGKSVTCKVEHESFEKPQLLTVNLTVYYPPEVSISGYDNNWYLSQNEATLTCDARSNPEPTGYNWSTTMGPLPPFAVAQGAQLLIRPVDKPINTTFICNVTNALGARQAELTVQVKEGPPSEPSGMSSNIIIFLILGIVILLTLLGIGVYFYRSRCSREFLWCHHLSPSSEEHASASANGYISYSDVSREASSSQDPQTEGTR

B1: chimeric anti-PVR antibody 5B9 wild type, IgG4 (S241P), VH0/VK0 (antibody, V domains shown)
VH: QVQLQQSGAELMKPGASVKISCKATGYTFSNYWIEWIKQRPGHGLEWIGEIFPGSGRINFNEKFKGKATFTADTSSDTTYMQLSSLTSADSAVYYCARTKIYGNSFDYWGQGTTLTVSP
VL: DIMMTQSHKFMSTSVGDRVNITCKASQDVGTAVVWYQQKPGQSPKLLIYWASSRHNGVPDRFTGSGSGTDFTLTISNVQSEDLSDYFCQQYSRYPLTFGAGTKLELK
notes: Mouse/human chimeric antibody with human IgG4 (S241P) constant region; also called WT; parental N56 variant (VH0VK0)
B2: chimeric 5B9 N56E variant, IgG4(S241P) N56E_VH0/VK0 (antibody, name in Kabat numbering, V domains shown)
VH: B1 VH
VL: B1 VL with N56E
notes: Human IgG4 (S241P) constant region; also called chimeric N56E mutated parental antibody
B3: VH0/Vκ0 Pro56 (antibody, V domains shown)
VH: B1 VH
VL: B1 VL with N56P
notes: chimeric 5B9 N56 substitution variant; also called N56P
B4: VH0/Vκ0 Ala56 (antibody, V domains shown)
VH: B1 VH
VL: B1 VL with N56A
notes: chimeric 5B9 N56 substitution variant; also called N56A
B5: VH0/Vκ0 Ser56 (antibody, V domains shown)
VH: B1 VH
VL: B1 VL with N56S
notes: chimeric 5B9 N56 substitution variant; also called N56S
B6: chimeric 5B9 N56D variant, IgG4 (S241P) (antibody, name in Kabat numbering, V domains shown)
VH: B1 VH
VL: B1 VL with N56D
notes: Human IgG4 (S241P) constant region
B7: VH0/Vκ0 Thr56 (antibody, V domains shown)
VH: B1 VH
VL: B1 VL with N56T
notes: chimeric 5B9 N56 substitution variant; also called N56T
B8: humanized 5B9 variant VH5/VK2 (antibody, V domains shown)
VH: QVQLVQSGAEVKKPGASVKVSCKATGYTFSNYWIEWVRQAPGQGLEWMGEIFPGSGRINFNEKFKGRVTFTADTSISTAYMELSRLRSDDTAVYYCARTKIYGNSFDYWGQGTLVTVSS
VL: DIQMTQSPSSLSASVGDRVTITCKASQDVGTAVVWYQQKPGKAPKLLIYWASSRHEGVPDRFSGSGSGTDFTLTISSLQPEDFADYFCQQYSRYPLTFGQGTKLEIK
B9: humanized 5B9 variant VH5/VK3 (antibody, V domains shown)
VH: B8 VH
VL: B8 VL with K24R, D60S, D85T

Molecular target: T1, PVR conjugated to Histidine tag …
Experiment: SPR (Biacore T200); KD divided by the KD of VH0/Vκ0 WT
Experimental: FIGS. 1A-1B. Affinity and competition assays of N56 substitutions. FIG. 1A. […] Biacore assay showing relative and absolute affinity of the N56 substitutions (hIgG4 variants) to PVR-HIS tagged (Sino Cat. no. 10109-H08H). Affinity shift of >25% were considered significant.
(§1) Seven chimeric variants were generated by introducing a point mutation at residue asparagine N56. […] Binding was tested for the analyte PVR conjugated to Histidine tag (PVR-HIS, Sino Cat. no. 10109-H08H). Dilution range: Five point two-fold dilution from 50 nM to 3.125 nM. Conditions used: Instrument: Biacore T200 (serial no. 1909913) running Biacore T200 Evaluation Software V2.0.1. Running buffer: HBS-P+, 300 mM NaCl, 1 mg/ml BSA. Flow rate: […]. Association: 350 s, Dissociation: 800 s. Regeneration: 10 mM glycine pH 1.5. Analysis: 1:1 binding.

Relative KD	Binder
1	B1
0.69	B2
1.48	B3
0.89	B4
1.05	B5
0.64	B6
0.86	B7

Molecular target: human poliovirus receptor (PVR, CD155) expressed on cells (human) (UniProt P15151)
Experiment: flow cytometry, binding to PVR-expressing HEK 293 cells; relative to N56E VH0/Vκ0

Relative EC50	Binder
0.82	B8
0.72	B9

Molecular target: T1, PVR conjugated to Histidine tag …
Experiment: SPR (Biacore T200), antibody captured on Protein A chip, PVR-HIS as analyte, 1:1 binding
Experimental: as §1

Kd [nM]	koff [s⁻¹]	kon [M⁻¹ s⁻¹]	Binder
5.12	0.000715	140000	B1
3.55	0.000653	184000	B2
7.58	0.00105	138000	B3
4.57	0.000701	154000	B4
4.61	0.000701	152000	B5
3.27	0.000637	195000	B6
4.4	0.000688	156000	B7

Molecular target: T2, human PVR (SPR of the humanized …)
Experiment: SPR; relative to N56E VH0/Vκ0

Relative KD	Binder
1.03	B8
1.34	B9
1	B2

Molecular target: T2, human PVR (SPR of the humanized …)
Experiment: SPR

Kd [nM]	Binder
5.68	B8
7.41	B9
5.54	B2

Molecular target: human poliovirus receptor (PVR, CD155) expressed on cells (human) (UniProt P15151)
Experiment: flow cytometry, binding to PVR-expressing HEK 293 cells

EC50 [nM]	Binder
0.64	B8
0.57	B9
0.79	B2

Molecular target: T3, chlorocebus (African green monkey) PVR …
Experiment: flow cytometry, 10 ug/ml antibody on Vero cells; MFI divided by the MFI of K0
Experimental: FIGS. 2A-2B. […] To assess maximal binding, saturating dose (10 ug/ml) of the N56 variant monoclonal antibodies (shown at the X axis) were used to stain PVR-expressing cells, and mean fluorescence intensity (MFI) values were determined by FACS analysis. […] (FIG. 2A) NCI-H1975 (human lung) cells and (FIG. 2B) Vero (African green monkey kidney) cells. Affinity shifts of >25% were considered significant.
The binding of the N56 substitution variant antibodies to cell bound PVR of human (protein id: Q92692) and chlorocebus (African green monkey, protein id: UniProtKB—P32506) was examined. FIG. 2A depicts the relative binding of all variants, which were added in saturating concentration (10 ug/ml), to NCI-H1975 cells expressing human PVR. FIG. 2B depicts the relative binding of all variants, which were added in saturating concentration (10 ug/ml), to Vero cells expressing chlorocebus PVR. […] Cell binding of the Abs was analyzed by FACS.

Fold change MFI	Binder
1	B1
1.31	B2
1.2	B4
0.73	B5
1.27	B6
1.19	B7

Source: patent US20260152568A1 (NECTIN THERAPEUTICS, published 2026)
